Source: the supplement of paper PMC11208486

How the values were obtained:
[1] = melting temperature (ThermoFMN); higher = more thermostable
Experimental: (§1)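 Purified His-tagged ene reductases (1 mg/ml) in 50 mM sodium phosphate pH 7.4 with 0-30% (v/v) organic co-solvent. Melting temperature was measured by the ThermoFMN assay (FMN fluorescence, 20-90 °C at 1 °C/min, inflection point, triplicate). Specific initial activity was measured with 10 mM cyclohex-2-enone and 0.2 mM NAD(P)H (NADH for LacER) as A340 depletion, at room temperature (DMSO, 2-propanol, n-propanol) or 25 °C (EtOH, MeOH), in triplicate. The TsOYE Tm is above the 90 °C measurement range.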

[2] = specific initial activity, cyclohex-2-enone reduction (U mg-1); higher = more active
Experimental: as §1, with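 “reductases” for “reductases (1 mg/ml)”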

MSFVKDFKPQALGDTNLFKPIKIGNNELLHRAVIPPLTRMRALHPGNIPNRDWAVEYYTQRAQRPGTMIITEGAFISPQAGGYDNAPGVWSEEQMVEWTKIFNAIHEKKSFVWVQLWVLGWAAFPDNLARDGLRYDSASDNVFMDAEQEAKAKKANNPQHSLTKDEIKQYIKEYVQAAKNSIAAGADGVEIHSANGYLLNQFLDPHSNTRTDEYGGSIENRARFTLEVVDALVEAIGHEKVGLRLSPYGVFNSMSGGAETGIVAQYAYVAGELEKRAKAGKRLAFVHLVEPRVTNPFLTEGEGEYEGGSNDFVYSIWKGPVIRAGNFALHPEVVREEVKDKRTLIGYGRFFISNPDLVDRLEKGLPLNKYDRDTFYQMSAHGYIDYPTYEEALKLGWDKK
Details | melting temperature, co-solvent: 2-propanol [°C] | melting temperature, co-solvent: dimethyl sulfoxide [°C] | melting temperature, co-solvent: ethanol [°C] | melting temperature, co-solvent: methanol [°C] | melting temperature, co-solvent: n-propanol [°C] | specific initial activity, co-solvent: 2-propanol | specific initial activity, co-solvent: dimethyl sulfoxide | specific initial activity, co-solvent: ethanol | specific initial activity, co-solvent: methanol | specific initial activity, co-solvent: n-propanol
[1], co-solvent concentration (% v/v): 0 | 45 | 45 | 45.3 | 46 | 45 | – | – | – | – | –
[1], co-solvent concentration (% v/v): 5 | 44 | 44.3 | 43.3 | 45 | 40.3 | – | – | – | – | –
[1], co-solvent concentration (% v/v): 10 | 41.3 | 43.3 | 42 | 43 | 34.7 | – | – | – | – | –
[1], co-solvent concentration (% v/v): 15 | 37.3 | 42 | 39.7 | 42 | 31.7 | – | – | – | – | –
[1], co-solvent concentration (% v/v): 20 | 34.7 | 40.7 | 37.7 | 40.3 | 31 | – | – | – | – | –
[1], co-solvent concentration (% v/v): 25 | 33.7 | 39.3 | 35.3 | 37.7 | 30.3 | – | – | – | – | –
[1], co-solvent concentration (% v/v): 30 | 28.3 | 37.3 | 34.3 | 34.7 | 27.3 | – | – | – | – | –
[2], co-solvent concentration (% v/v): 0 | – | – | – | – | – | 1.22 | 1.31 | 1.49 | 1.55 | 1.3
[2], co-solvent concentration (% v/v): 5 | – | – | – | – | – | 1.54 | 1.43 | 1.58 | 1.72 | 1.59
[2], co-solvent concentration (% v/v): 10 | – | – | – | – | – | 1.7 | 1.35 | 1.78 | 1.81 | 1.83
[2], co-solvent concentration (% v/v): 15 | – | – | – | – | – | 1.86 | 1.31 | 1.97 | 2.07 | 1.81
[2], co-solvent concentration (% v/v): 20 | – | – | – | – | – | 1.8 | 1.38 | 2 | 2.23 | 1.86
[2], co-solvent concentration (% v/v): 25 | – | – | – | – | – | 2 | 1.32 | 2.1 | 2.42 | 1.84
[2], co-solvent concentration (% v/v): 30 | – | – | – | – | – | 2.05 | 1.32 | 2.46 | 2.58 | 1.96

MNPKYKPLFEPFTFKSGVTINNRIAVAPMTHYASNEDGTISEAELDYIIPRSKEMGMVITACANVTPDGKAFPGQPAIHDDSNIPGLKKLAQAIQAQGAKAVVQIHHGGIECPSELVPQQDVVGPSDVFDNGKQIARALTEEEVENIVKAFGEATRRAIEAGFDGVEIHGANGYLIQQFYSPKTNQRTDRWGGSDEKRLAFPLAIVDEVKKAASEHAKGAFLVGYRLSPEEPETPGLTMTETYTLVDALGDKELDYLHISLMDVNSKARRGADPTRTRMDLLNERVGNKVPLIAVGSIHSADDALAVIENGIPLVAMGREILVDPNWTVKVKEGREKQIETVIKGTDKEKYHLPEPLWQAIVNTQGWVPYKD
Details | melting temperature, co-solvent: 2-propanol [°C] | melting temperature, co-solvent: dimethyl sulfoxide [°C] | melting temperature, co-solvent: ethanol [°C] | melting temperature, co-solvent: methanol [°C] | melting temperature, co-solvent: n-propanol [°C] | specific initial activity, co-solvent: 2-propanol | specific initial activity, co-solvent: dimethyl sulfoxide | specific initial activity, co-solvent: ethanol | specific initial activity, co-solvent: methanol | specific initial activity, co-solvent: n-propanol
[1], co-solvent concentration (% v/v): 0 | 54 | 54 | 54 | 54 | 54 | – | – | – | – | –
[1], co-solvent concentration (% v/v): 5 | 46 | 51.7 | 51 | 52.3 | 43.7 | – | – | – | – | –
[1], co-solvent concentration (% v/v): 10 | 39.3 | 51 | 45.3 | 49.7 | 33 | – | – | – | – | –
[1], co-solvent concentration (% v/v): 15 | 39.3 | 50 | 42 | 43.7 | 31.3 | – | – | – | – | –
[1], co-solvent concentration (% v/v): 20 | 33.7 | 50 | 38.7 | 44.3 | 30.3 | – | – | – | – | –
[1], co-solvent concentration (% v/v): 25 | 32.7 | 49.7 | 38.3 | 42.3 | 29.3 | – | – | – | – | –
[1], co-solvent concentration (% v/v): 30 | 33.7 | 49.7 | 36.3 | 40 | 30.3 | – | – | – | – | –
[2], co-solvent concentration (% v/v): 0 | – | – | – | – | – | 5.75 | 4.09 | 5.73 | 5.71 | 5.25
[2], co-solvent concentration (% v/v): 5 | – | – | – | – | – | 6.02 | 4.4 | 5.9 | 6.14 | 5.2
[2], co-solvent concentration (% v/v): 10 | – | – | – | – | – | 6.11 | 4.34 | 6.22 | 5.62 | 4.82
[2], co-solvent concentration (% v/v): 15 | – | – | – | – | – | 6.21 | 4.41 | 6.67 | 5.36 | 4.55
[2], co-solvent concentration (% v/v): 20 | – | – | – | – | – | 6.17 | 4.2 | 6.21 | 5.05 | 4.07
[2], co-solvent concentration (% v/v): 25 | – | – | – | – | – | 5.81 | 4.35 | 6.62 | 5.09 | 3.69
[2], co-solvent concentration (% v/v): 30 | – | – | – | – | – | 5.26 | 4.2 | 5.96 | 4.27 | 2.94
